Source: patent US20230220034A1, “METHOD FOR IMPROVING SOLUBILITY OF PROTEIN AND PEPTIDE BY USING IMMUNOGLOGULIN FC FRAGMENT LINKAGE” (HANMI PHARM. CO., LTD., priority 2014, published 2023)
Like-named read-outs stand apart in the source and are kept apart here. Square brackets hold non-standard residues; d marks the D form. Ends that are not written are not given here. Aib = CC(C)(N)C(=O)O

How the values were obtained:
[1] = Test of solubility of insulin and long-acting insulin conjugate (RP-HPLC against calibration standard curve); assay type: physicochemical; settings: for Measurement value (quantitative value calculated by standard calibration curve): pH 6.0 acetic acid buffer, polysorbate, mannitol, sodium chloride, room temperature, supernatant
Description: A respective calibration standard curve of insulin and the long-acting insulin conjugate was first confirmed by Reverse Phase-High Performance Liquid Chromatography (RP-HPLC), as in FIG. 1.

[2] = pH 5.6

Substance | solubility ([1]; FIG. 2, composition of Table 1, pH 6.0) [µg/mL] | difference between the theoretical value and the measurement value ([1]; dissolved in long-acting insulin conjugate formulation buffer, pH 6.0) | pellets after centrifugation ([1]; long-acting insulin conjugate formulation buffer, all cases, excluding 0.008 mg/mL) | point at which completely dissolved without impurities or pellet (minimum quantitative value) ([1]; serial dilution of test material from about 10 mg/mL, pH 6.0) [mg/mL] | Measurement value (quantitative value calculated by standard calibration curve) ([1]; theoretical quantitative value 0.008 mg/mL) [mg/mL] | Measurement value (quantitative value calculated by standard calibration curve) ([1]; theoretical quantitative value 0.04 mg/mL) [mg/mL] | Measurement value (quantitative value calculated by standard calibration curve) ([1]; theoretical quantitative value 0.2 mg/mL) [mg/mL] | Measurement value (quantitative value calculated by standard calibration curve) ([1]; theoretical quantitative value 1 mg/mL) [mg/mL] | Measurement value (quantitative value calculated by standard calibration curve) ([1]; theoretical quantitative value 5 mg/mL) [mg/mL] | Measurement value (quantitative value calculated by standard calibration curve) ([1]; theoretical quantitative value 10 mg/mL) [mg/mL] | difference between the theoretical value and the measurement value [2] | solubility [2] [µg/mL] | point at which completely dissolved without impurities or pellet (minimum quantitative value) ([2]; serial dilution of test material from about 5 mg/mL) [mg/mL]
Insulin | 628 | up to 16 times | pellets were observed | 0.008 | 0.000 | 0.000 | 0.005 | 0.047 | 0.253 | 0.628 |  |  | 
Oxyntomodulin derivative: oxyntomodulin derivative having the amino acid sequence of SEQ ID NO: 27, cysteine residue at position 30 (H[Aib]QGTFTSDYSKYLDEKRAKEFVQWLMNTC) |  |  |  |  |  |  |  |  |  |  | up to 27 times | 188 | 0.008
